Values quoted from earlier work in PMC6121496.
“And” between values parts separate entries of the source, which are not always exact repeats. Equal entries are not always repeated. Where two headings read alike, the source gives them in different places.

Key:
[1] = target: KPC-2 beta-lactamase (Klebsiella pneumoniae) (UniProt Q9F663)
[2] = target: TEM-1 beta-lactamase (Escherichia coli) (UniProt P62593); assay: SPR
[3] = target: TEM-1 beta-lactamase (Escherichia coli) (UniProt P62593)
[4] = target: TEM-1 beta-lactamase (Escherichia coli) (UniProt P62593); assay: SPR; remark: listed apart in the source
[5] = target: TEM-1 beta-lactamase (Escherichia coli) (UniProt P62593); remark: listed apart in the source
[6] = target: PC1 beta-lactamase (Staphylococcus aureus) (UniProt P00807); assay: stopped flow fluorometry, ITC
[7] = target: CTX-M14 beta-lactamase (Escherichia coli); assay: enzyme inhibition
[8] = target: KPC-3 beta-lactamase (Klebsiella pneumoniae) (UniProt Q9F663); assay: enzyme inhibition
[9] = target: PC1 beta-lactamase (Staphylococcus aureus) (UniProt P00807); assay: enzyme inhibition
[10] = target: SHV-1 beta-lactamase (Klebsiella pneumoniae) (UniProt P0AD64); assay: enzyme inhibition
[11] = target: SME-1 beta-lactamase (Serratia marcescens) (UniProt P52682); assay: enzyme inhibition
[12] = target: TEM-1 beta-lactamase (Escherichia coli) (UniProt P62593); remark: listed apart in the source
[13] = target: TEM-1 beta-lactamase (Escherichia coli) (UniProt P62593); remark: listed apart in the source
[14] = target: TEM-1 beta-lactamase (Escherichia coli) (UniProt P62593); remark: listed apart in the source
[15] = target: TEM-1 beta-lactamase (Escherichia coli) (UniProt P62593); remark: listed apart in the source
[16] = target: TEM-1 beta-lactamase (Escherichia coli) (UniProt P62593); remark: listed apart in the source

Sequence of UniProt P0AD64 (P0AD64 22-286): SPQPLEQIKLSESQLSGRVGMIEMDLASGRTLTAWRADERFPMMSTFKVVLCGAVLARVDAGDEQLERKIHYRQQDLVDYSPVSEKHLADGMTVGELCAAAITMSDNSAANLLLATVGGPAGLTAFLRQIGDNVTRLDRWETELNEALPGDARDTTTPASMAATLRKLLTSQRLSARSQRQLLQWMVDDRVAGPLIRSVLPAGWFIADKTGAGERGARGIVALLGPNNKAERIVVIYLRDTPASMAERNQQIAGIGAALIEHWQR
Sequence of UniProt P62593 (P62593 24-286): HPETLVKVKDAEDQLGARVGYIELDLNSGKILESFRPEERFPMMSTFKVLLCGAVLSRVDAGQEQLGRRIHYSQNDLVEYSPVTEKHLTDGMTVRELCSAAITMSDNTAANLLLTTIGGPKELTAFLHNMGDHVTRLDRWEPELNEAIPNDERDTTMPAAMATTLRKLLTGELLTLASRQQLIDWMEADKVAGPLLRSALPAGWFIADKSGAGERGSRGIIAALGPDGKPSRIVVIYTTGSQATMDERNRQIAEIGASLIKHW
Sequence of UniProt P00807 (P00807 25-281): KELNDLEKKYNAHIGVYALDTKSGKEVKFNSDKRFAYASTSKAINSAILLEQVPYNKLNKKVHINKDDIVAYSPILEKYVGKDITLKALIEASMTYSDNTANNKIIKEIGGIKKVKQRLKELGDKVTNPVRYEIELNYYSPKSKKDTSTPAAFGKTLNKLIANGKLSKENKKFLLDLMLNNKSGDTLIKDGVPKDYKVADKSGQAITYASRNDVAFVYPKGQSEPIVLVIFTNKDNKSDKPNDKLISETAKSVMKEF
Sequence of UniProt P52682 (P52682 28-294): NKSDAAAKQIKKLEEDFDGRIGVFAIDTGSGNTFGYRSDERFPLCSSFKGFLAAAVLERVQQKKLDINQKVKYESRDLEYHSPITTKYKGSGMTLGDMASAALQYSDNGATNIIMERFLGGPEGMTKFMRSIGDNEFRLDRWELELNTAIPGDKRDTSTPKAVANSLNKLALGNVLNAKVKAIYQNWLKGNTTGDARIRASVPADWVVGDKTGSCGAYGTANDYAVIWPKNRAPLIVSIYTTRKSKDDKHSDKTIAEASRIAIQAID

## BLIP (from UniProt P35804)
[1]
  Ki: 1.2 nM
[2]
  Kd: 15 nM
[3]
  Kd: 1.3 nM and 1.7 nM
[4]
  Kd: 1.25 nM
[5]
  Kd: 0.3 nM
[6]
  Kd: 380 nM
[7]
  Ki: 810 nM
[8]
  Ki: 0.25 nM
[9]
  Ki: 350 nM
[10]
  Kd: 1250 nM
  Ki: 1100 nM and 1130 nM
[11]
  Ki: 2.4 nM
[12]
  Ki: 0.5 nM
[13]
  Ki: 0.4 nM
[14]
  Kd: 0.4 nM

## BLIP peptide 30-49 (from UniProt P35804)
[15]
  Ki: 352000 nM

## BLIP peptide (from UniProt P35804)
[16]
  Ki: 58000 nM
